Laboratory results: patent US20240360203A1 (GENERATE BIOMEDICINES, published 2024)
Substitutions are numbered along the chain they refer to. Where two headings read alike, the source gives them in different places.

Columns and labels:
Test in all cases: cell-based or functional assay
[1] = molecular target: T1, SARS-CoV-2 BA.2 Spike on pseudovirus (SARS-CoV-2, UniProt P0DTC2 14-1273)
[2] = molecular target: T2, SARS-CoV-2 BA.4/5 Spike on pseudovirus (SARS-CoV-2, UniProt P0DTC2 14-1273)
[3] = molecular target: T3, SARS-CoV-2 Delta Spike on pseudovirus (SARS-CoV-2, UniProt P0DTC2 14-1273)
[4] = molecular target: T4, SARS-CoV-2 BA.1 Spike on pseudovirus (SARS-CoV-2, UniProt P0DTC2 14-1273)
[5] = molecular target: T1, SARS-CoV-2 BA.2 Spike on pseudovirus; remark: listed apart in the source
[6] = molecular target: T5, SARS-CoV-2 BA.2.12.1 Spike on pseudovirus (SARS-CoV-2, UniProt P0DTC2 14-1273)
[7] = molecular target: T2, SARS-CoV-2 BA.4/5 Spike on pseudovirus; remark: listed apart in the source
[8] = molecular target: T3, SARS-CoV-2 Delta Spike on pseudovirus; remark: listed apart in the source
[9] = molecular target: T4, SARS-CoV-2 BA.1 Spike on pseudovirus; remark: listed apart in the source
[10] = molecular target: T1, SARS-CoV-2 BA.2 Spike on pseudovirus; remark: listed apart in the source
[11] = molecular target: T5, SARS-CoV-2 BA.2.12.1 Spike on …; remark: listed apart in the source
[12] = molecular target: T2, SARS-CoV-2 BA.4/5 Spike on pseudovirus; remark: listed apart in the source
[13] = molecular target: T3, SARS-CoV-2 Delta Spike on pseudovirus; remark: listed apart in the source
[14] = molecular target: T2, SARS-CoV-2 BA.4/5 Spike on pseudovirus; remark: listed apart in the source
[15] = molecular target: T5, SARS-CoV-2 BA.2.12.1 Spike on …; remark: listed apart in the source

B1: AB-1 (antibody, V domains shown)
VH: EVQLVESGAEVKKPGESLKISCKGSGYTFTRYWIGWVRQMPGKGLEWMGIIYPGDSDVRYSPSFQGHVTISADKSISTAYLQWNSLKASDTAMYYCARLPQYCSKGVCYRWFDPWGQGTLVTVSS
VL: EIVLTQSPSSVSASVGDRVTITCRASQGISSWLAWYQQKPGKAPKLLIYAASSLQSGVPSRFSGSGSGTDFTLTISSLQPEDFATYYCQQGHSFPYTFGQGTNLEIK
IC50, pseudovirus neutralization [1]: 0.031 µg/mL
IC50, pseudovirus neutralization [2]: 0.075 µg/mL
IC50, pseudovirus neutralization [3]: 0.034 µg/mL
IC50, pseudovirus neutralization [4]: 0.0088 µg/mL
IC50, pseudovirus neutralization [5]: 0.0219 µg/mL
IC50, pseudovirus neutralization [6]: 0.0133 µg/mL
IC50, pseudovirus neutralization [7]: 0.0278 µg/mL
IC50, pseudovirus neutralization [8]: 0.0139 µg/mL
% neutralization at 4.5 µg/ml, pseudovirus [9]: 96.5%
% neutralization at 4.5 µg/ml, pseudovirus [10]: 89.9%
% neutralization at 4.5 µg/ml, pseudovirus [11]: 89.2%
% neutralization at 4.5 µg/ml, pseudovirus [12]: 90.4%
% neutralization at 4.5 µg/ml, pseudovirus [13]: 99.5%
IC50, pseudovirus neutralization [14]: 0.0101 µg/mL

B2: Reference Antibody (antibody, V domains shown)
VH: B1 VH with V58T, K105N, Y109Q
VL: B1 VL with H92N
IC50, pseudovirus neutralization [1]: 1.25 µg/mL
IC50, pseudovirus neutralization [15]: 0.337 µg/mL
IC50, pseudovirus neutralization [2]: 0.634 µg/mL
IC50, pseudovirus neutralization [3]: 0.256 µg/mL
IC50, pseudovirus neutralization [4]: 0.0261 µg/mL
IC50, pseudovirus neutralization [5]: 0.0941 µg/mL
IC50, pseudovirus neutralization [6]: 0.0307 µg/mL
IC50, pseudovirus neutralization [7]: 0.0314 µg/mL
IC50, pseudovirus neutralization [8]: 0.0681 µg/mL
% neutralization at 4.5 µg/ml, pseudovirus [9]: 91.9%
% neutralization at 4.5 µg/ml, pseudovirus [10]: 74.5%
% neutralization at 4.5 µg/ml, pseudovirus [12]: 74.4%
% neutralization at 4.5 µg/ml, pseudovirus [13]: 93.9%
